From patent US20060058224A1, “Methods of treating obesity with combination therapeutics” (priority 2004, published 2006)

How the values were obtained:
[1] = tested on: DIO (Diet-Induced Obesity; AKR/J mice fed a high fat diet) mice; experiment: Effect on body weight in a mouse model of obesity (DIO mice), daily treatment Day 0 to Day 21; type: in vivo; settings: Axokine 0.03 mg/kg SC, phentermine 10.0 mg/kg IP; for loss of starting body weight: after 21 days of daily treatment, control lost 2%; for body weight change in words (FIG. 1): daily administration
Protocol: FIG. 1 is a graph of the change in body weight as a percentage of weight at Day 0 from Day 0 to Day 21 food intake (24 hours) over time (Days —1 to 21) for diet-induced obese (DIO) mice treated with 0.9% NaCl (4 μl/g, intraperitoneal (IP) injection) and placebo (4 μl/g subcutaneous (SC) injection; Group A: Control ═X); Axokine™ (0.03 mg/kg, SC; Group B=⋄); phentermine (10.0 mg/kg, IP; Group C=□); Axokine™ (0.03 mg/kg, SC) and phentermine (10.0 mg/kg, IP; Group D=□); and pair fed to group B=⋄).
(§1) A study was conducted to determine the effect of the combination of phentermine and Axokine™ on body weight and food intake in a mouse model of obesity. 30 DIO (Diet-Induced Obesity; AKR/J mice fed a high fat diet) mice were divided into 5 equal groups (n=6 per group). Four groups were treated daily in the afternoon starting on Day 0 as follows: Group A (control): 0.9% NaCl (4 μl/g, intraperitoneal (IP) injection) and placebo (4 μl/g subcutaneous (SC) injection); Group B: Axokine™ (0.03 mg/kg, SC); Group C: phentermine (10.0 mg/kg, IP); Group D: Axokine™ (0.03 mg/kg, SC)+phentermine (10.0 mg/kg, IP). The […] group, Group E was pair fed to Group B; each animal in this group received the average amount of food the Axokine™ treated animals consumed the previous day. This treatment paradigm continued until Day 21 (last injection on Day 20). […] Animals who were pair-fed to the Axokine™ group, lost weight at a rate similar to that of the Axokine™ group up to Day 11 of the study. After this time, their weight loss reached a plateau.

[2] = tested on: DIO (Diet-Induced Obesity; AKR/J mice fed a high fat diet) mice; experiment: 24 h food intake in DIO mice over the 21 day study; type: in vivo, mouse
Protocol: FIG. 2 is a graph of 24 h food intake monitored for the duration of the study for the DIO mice treated as described in the legend of FIG. 1.
as §1
After the second day of the study, control animals resumed their typical eating pattern, consuming approximately 4 g of food a day. Animals who received Axokine™ or were pair-fed, maintained this decreased food intake of about 2.75 g per day until Day 12 when they began to consume more food (3.5 g at the end of the study).

Molecule | loss of starting body weight [1] | body weight change in words (FIG. 1) [1] | food intake in words (FIG. 2) ([2]; daily treatment, Axokine 0.03 mg/kg SC, phentermine 10.0 mg/kg IP) | 24 h food intake at the end of the study ([2]; Axokine 0.03 mg/kg SC daily, end of the study (Day 21)) [g] | 24 h food intake ([2]; Axokine 0.03 mg/kg SC daily, from Day 2 until Day 12, control approximately 4 g a day)
CC(C)(N)Cc1ccccc1 [phentermine, reference compound] | about 15% | significant decrease in body weight relative to control animals | decreased food intake relative to control |  | 
Axokine™: modified ciliary neurotrophic factor (CNTF) molecule, hCNTF C17A Q63R Δ15 (SEQ ID NO:3 or SEQ ID NO:4) (protein) MAFTEHSPLTPHRRDLASRSIWLARKIRSDLTALTESYVKHQGLNKNINLDSADGMPVASTDRWSELTEAERLQENLQAYRTFHVLLARLLEDQQVHFTPTEGDFHQAIHTLLLQVAAFAYQIEELMILLEYKIPRNEADGMPINVGDGGLFEKKLWGLKVLQELSQWTVRSIHDLRFISSHQTG | approximately 19% | significant decrease in body weight relative to control animals |  | 3.5 | about 2.75 g per day
